Source: publication PMC4728126, “Stable G protein-effector complexes in striatal neurons: mechanism of assembly and role in neurotransmitter signaling” (eLife, 2015)

Target: adenylyl cyclase type 5 (mouse (endogenous in striatum)) (UniProt P84309)
Sequence (P84309 whole entry): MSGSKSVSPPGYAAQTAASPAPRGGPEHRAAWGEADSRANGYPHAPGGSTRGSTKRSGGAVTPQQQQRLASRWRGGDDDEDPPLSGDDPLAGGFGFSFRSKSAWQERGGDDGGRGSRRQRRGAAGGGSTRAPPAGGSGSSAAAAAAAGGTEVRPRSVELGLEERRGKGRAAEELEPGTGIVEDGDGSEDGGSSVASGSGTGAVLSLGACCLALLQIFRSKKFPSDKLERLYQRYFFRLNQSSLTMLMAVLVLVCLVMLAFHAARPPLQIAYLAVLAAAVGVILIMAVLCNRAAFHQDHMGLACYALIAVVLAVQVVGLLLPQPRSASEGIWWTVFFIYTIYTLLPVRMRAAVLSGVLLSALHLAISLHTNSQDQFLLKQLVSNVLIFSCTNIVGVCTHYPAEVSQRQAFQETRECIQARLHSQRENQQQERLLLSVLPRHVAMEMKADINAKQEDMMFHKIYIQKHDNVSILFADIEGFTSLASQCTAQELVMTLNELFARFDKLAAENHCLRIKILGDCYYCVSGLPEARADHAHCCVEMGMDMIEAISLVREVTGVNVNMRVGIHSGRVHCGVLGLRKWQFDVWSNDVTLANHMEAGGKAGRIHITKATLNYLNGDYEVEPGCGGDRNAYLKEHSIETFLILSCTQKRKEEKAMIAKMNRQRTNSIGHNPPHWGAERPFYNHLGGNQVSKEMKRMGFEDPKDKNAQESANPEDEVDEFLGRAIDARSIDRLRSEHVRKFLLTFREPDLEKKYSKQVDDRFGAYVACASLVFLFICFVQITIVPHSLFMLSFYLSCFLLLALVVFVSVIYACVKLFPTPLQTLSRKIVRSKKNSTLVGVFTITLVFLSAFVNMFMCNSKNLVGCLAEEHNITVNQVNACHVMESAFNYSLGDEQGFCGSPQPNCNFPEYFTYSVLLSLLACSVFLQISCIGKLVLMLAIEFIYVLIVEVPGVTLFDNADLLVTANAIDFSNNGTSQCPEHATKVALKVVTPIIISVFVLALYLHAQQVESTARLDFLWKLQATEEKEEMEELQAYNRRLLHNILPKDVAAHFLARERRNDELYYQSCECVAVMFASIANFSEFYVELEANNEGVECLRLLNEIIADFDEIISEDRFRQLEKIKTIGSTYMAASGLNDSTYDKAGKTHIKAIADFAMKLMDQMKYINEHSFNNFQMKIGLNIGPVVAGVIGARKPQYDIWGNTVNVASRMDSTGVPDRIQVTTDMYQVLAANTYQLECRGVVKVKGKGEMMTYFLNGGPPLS

Gαs-GTPγS, sequence (P63092 whole entry): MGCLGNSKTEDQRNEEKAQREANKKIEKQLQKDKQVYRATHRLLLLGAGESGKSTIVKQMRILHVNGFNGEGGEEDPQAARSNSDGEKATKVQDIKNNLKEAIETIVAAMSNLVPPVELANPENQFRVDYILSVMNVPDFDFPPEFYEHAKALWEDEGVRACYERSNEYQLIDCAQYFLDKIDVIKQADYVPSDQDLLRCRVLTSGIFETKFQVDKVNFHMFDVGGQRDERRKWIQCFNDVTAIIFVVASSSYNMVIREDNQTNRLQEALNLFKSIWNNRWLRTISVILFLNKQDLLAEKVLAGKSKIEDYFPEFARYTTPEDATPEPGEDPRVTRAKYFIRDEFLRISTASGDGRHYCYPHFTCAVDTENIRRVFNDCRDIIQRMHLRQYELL

Gαs-GTPγS (from UniProt P63092 1-394) (natural protein)
EC50 of Gαs-GTPγS-mediated activation of adenylyl cyclase in striatal membranes, PhLP1-treated reaction (0.5 μM purified PhLP1): 22.3 nM | EC50 of Gαs-GTPγS-mediated activation of adenylyl cyclase in striatal membranes, control reaction: 16.2 nM
